Source: PMC2610422

Molecular target: transmembrane glycoprotein gp41 of HIV-1 strain BaL, in the native spike on virions (HIV-1 strain BaL)
Experiment: cryo-EM structure

transmembrane glycoprotein gp41 of HIV-1 strain BaL, in the native spike on virions (natural protein)
stoichiometry N: 3
